Results on two molecules are retold here after patent US20230340065A1 (published 2023).

The target in assay [1] is T1, FBXO24 peptide on HLA-A*24:02 (human).
T1 peptide: DYVGTLFFL
In words: cytokine release.

For assay [2], the target named is T2, PRAME peptide on HLA-A*02:17 (human).
T2 peptide: LYVDSLFFL
In words: cytokine release.

In assay [3] the target is T3, XXYLT1 peptide on HLA-A*24:02 (human).
T3 peptide: YYSDSIFFL
Briefly: cytokine release.

Assay [4] has as its target T4, GTPBP6 peptide on HLA-A*24:02 (human).
T4 peptide: LYVDTIGFL
In words: cytokine release.

Assay [5] concerns the target T5, KCNK12 peptide on HLA-A*24:02 (human).
T5 peptide: DYVDSLYFC
Briefly: cytokine release.

For assay [6], the target named is T6, CATSPERB peptide on HLA-A*24:02 (human).
T6 peptide: LYYDHLGFL
Briefly: cytokine release.

For assay [7], the target named is T7, PRAME peptide on HLA-A*24:02 (human).
T7 peptide: LYVDSLFFL
Briefly: multimer staining.

B1: TCR T116-49 (TCR, V domains shown)
Valpha: QQPVQSPQAVILREGEDAVINCSSSKALYSVHWYRQKHGEAPVFLMILLKGGEQKGHEKISASFNEKKQQSSLYLTASQLSYSGTYFCGTANSGGSNYKLTFGKGTLLTVNP
Vbeta: DAGITQSPRHKVTETGTPVTLRCHQTENHRYMYWYRQDPGHGLRLIHYSYGVKDTDKGEVSDGYSVSRSKTEDFLLTLESATSSQTSVYFCAISDYEGTEAFFGQGTRLTVV
For the molecule B1, the binding result is listed as “recognises” in assay [1]; “recognises” in assay [2]; “no recognition” in assay [3]; “no recognition” in assay [4]; “no recognition” in assay [5]; “no recognition” in assay [6]. Further, the binding result in assay [7] was “recognises”.

B2: TCR T402-93 (TCR, V domains shown)
Valpha: GQQVMQIPQYQHVQEGEDFTTYCNSSTTLSNIQWYKQRPGGHPVFLIQLVKSGEVKKQKRLTFQFGEAKKNSSLHITATQTTDVGTYFCAGALPRAGSYQLTFGKGTKLSVIP
Vbeta: SQTIHQWPATLVQPVGSPLSLECTVEGTSNPNLYWYRQAAGRGLQLLFYSVGIGQISSEVPQNLSASRPQDRQFILSSKKLLLSDSGFYLCAWSLGAGYTDTQYFGPGTRLTVL
For B2, the binding result is given as “no recognition” in assay [1]; “recognises” in assay [3]; “recognises” in assay [4]; “recognises” in assay [5]; “recognises” in assay [6]; “recognises” in assay [7].
